The source of these data is PMC7239654, “R-spondins engage heparan sulfate proteoglycans to potentiate WNT signaling” (eLife, 2020).

One test addresses T1, glycosylated GPC3 (Homo sapiens (assumed), UniProt P51654, heparan sulfate chains (glycosylated)).
T1 construct: glypican 3 (GPC3), glycosylated recombinant protein, R and D Systems Cat. # 2119-GP; also called glypican 3; source: bought: R and D Systems
Nature of the test: ELISA; 96-well plate coated with 5 μg/ml of the GPC protein; HS20 added in serial 2-fold dilutions starting from 1 μg/ml, 1 hr at RT; washed with PBST; detected with goat anti-human kappa chain HRP conjugate and TMB, absorbance at 450 nm. As to conditions: both partners purified. Background: ELISA stands for enzyme-linked immunosorbent assay.

The target in a further test is T2, glycosylated GPC4 (Homo sapiens (assumed), UniProt O75487, heparan sulfate chains (glycosylated)).
T2 construct: glypican 4 (GPC4), glycosylated recombinant protein, R and D Systems Cat. # 9195-GP; also called glypican 4; source: bought: R and D Systems
T2 sequence (O75487 19-529): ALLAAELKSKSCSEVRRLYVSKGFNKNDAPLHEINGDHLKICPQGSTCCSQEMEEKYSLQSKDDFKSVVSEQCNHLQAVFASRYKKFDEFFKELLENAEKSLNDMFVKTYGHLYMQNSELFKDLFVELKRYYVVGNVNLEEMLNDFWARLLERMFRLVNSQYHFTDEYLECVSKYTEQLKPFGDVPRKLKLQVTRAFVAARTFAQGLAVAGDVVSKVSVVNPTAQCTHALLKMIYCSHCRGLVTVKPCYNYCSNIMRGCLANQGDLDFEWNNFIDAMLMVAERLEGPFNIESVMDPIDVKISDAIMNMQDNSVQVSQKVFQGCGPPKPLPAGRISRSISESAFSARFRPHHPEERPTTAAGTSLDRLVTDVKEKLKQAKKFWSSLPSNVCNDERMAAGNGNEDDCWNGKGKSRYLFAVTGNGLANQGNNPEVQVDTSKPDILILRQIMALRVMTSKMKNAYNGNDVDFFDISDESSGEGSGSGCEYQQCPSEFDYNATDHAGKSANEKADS
The test is described as above. Conditions: both partners purified.

T1 sequence (P51654 25-580): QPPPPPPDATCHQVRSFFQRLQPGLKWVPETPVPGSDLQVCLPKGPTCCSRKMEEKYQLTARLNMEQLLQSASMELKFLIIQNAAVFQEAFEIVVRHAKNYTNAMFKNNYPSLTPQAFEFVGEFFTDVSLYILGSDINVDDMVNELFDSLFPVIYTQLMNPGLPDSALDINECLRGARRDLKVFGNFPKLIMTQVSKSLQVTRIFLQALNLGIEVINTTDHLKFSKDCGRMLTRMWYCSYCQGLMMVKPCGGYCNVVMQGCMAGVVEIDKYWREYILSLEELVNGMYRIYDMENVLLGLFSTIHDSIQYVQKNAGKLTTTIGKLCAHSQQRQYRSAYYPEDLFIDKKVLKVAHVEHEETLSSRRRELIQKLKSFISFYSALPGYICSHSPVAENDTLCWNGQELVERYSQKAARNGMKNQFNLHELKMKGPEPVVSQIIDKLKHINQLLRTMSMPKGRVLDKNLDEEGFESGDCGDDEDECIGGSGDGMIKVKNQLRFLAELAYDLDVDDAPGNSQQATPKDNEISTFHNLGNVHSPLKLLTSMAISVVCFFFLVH

B1: HS20 scFv (scFv, V domains shown)
VH: EVQLLESGGGLVQPGGSLRLSCAASGFTFSSYAMSWVRQAPGKGLEWVSTIQKQGLPTQYADSVKGRFTISRDNSKNTLYLQMNSLRAEDTAVYYCAKNRAKFDYWGQGTLVTVSS
VL: DIQMTQSPSSLSASVGDRVTITCRASQSISSYLNWYQQKPGKAPKLLIYAASMLQSGVPSRFSGSGSGTDFTLTISSLQPEDFATYYCQQNRGFPLTFGQGTKVEIK
notes: it was detected through its human kappa chain
B1: the binding result with glycosylated GPC3 and in the test with glycosylated GPC4 was “binds” each time.
